Publication PMC2936869, “Secreted fungal sulfhydryl oxidases: sequence analysis and characterisation of a representative flavin-dependent enzyme from Aspergillus oryzae” (BMC Biochemistry, 2010)

T1: AoSOX1 (Aspergillus oryzae, UniProt Q2UA33)
T1 construct: gene AO090102000564; secreted full-length protein, 384 aa including predicted 19-residue signal peptide (removed); C-terminal His6 tag added but apparently cleaved off by host protease; expressed in Trichoderma reesei; N-glycosylated; MW 43959 by MS
T1 sequence (Q2UA33 20-384): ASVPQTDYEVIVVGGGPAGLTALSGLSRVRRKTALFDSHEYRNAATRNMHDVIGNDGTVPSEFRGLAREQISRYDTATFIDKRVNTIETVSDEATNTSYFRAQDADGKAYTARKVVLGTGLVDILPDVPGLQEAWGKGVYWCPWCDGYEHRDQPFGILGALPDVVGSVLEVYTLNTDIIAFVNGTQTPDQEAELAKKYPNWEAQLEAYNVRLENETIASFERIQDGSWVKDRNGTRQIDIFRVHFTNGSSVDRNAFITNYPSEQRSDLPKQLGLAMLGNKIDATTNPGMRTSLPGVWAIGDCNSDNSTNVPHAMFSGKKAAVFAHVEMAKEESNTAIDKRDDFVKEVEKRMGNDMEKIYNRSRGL

B1: AoSOX1 (Aspergillus oryzae RIB40) (protein)
chain: T1 sequence (Q2UA33 20-384)
notes: secreted full-length protein, 384 aa including predicted 19-residue signal peptide (removed); C-terminal His6 tag added but apparently cleaved off by host protease; expressed in Trichoderma reesei; N-glycosylated; MW 43959 by MS

Key:
AoSOX1 = target: T1, AoSOX1; experiment: UV/visible absorption; cofactor released by thermal and chemical denaturation; format: binding; details: non-covalently bound cofactor; 20 mM Tris-HCl pH 7.0, 25 °C
[1] = substrate: N[C@@H](CS)C(=O)O; experiment: initial rates, Michaelis-Menten (HVA-peroxidase coupled assay, the paper's general assay); format: biochemical, Aspergillus oryzae; details: co-substrate O2, general assay in 50 mM potassium phosphate, 0.3 mM EDTA, pH 7.5
Text: (§1) initial rates, Michaelis-Menten (HVA-peroxidase coupled assay, the paper's general assay) on AoSOX1

[2] = substrate: N[C@H](CS)C(=O)O; experiment: as above; format: biochemical, Aspergillus oryzae; details: co-substrate O2, general assay in 50 mM potassium phosphate, 0.3 mM EDTA, pH 7.5
Text: as §1

[3] = substrate: OCCS; experiment: as above; format: biochemical, Aspergillus oryzae; details: co-substrate O2, general assay in 50 mM potassium phosphate, 0.3 mM EDTA, pH 7.5
Text: as §1

Molecule | UV/visible absorption; cofactor released by thermal and chemical denaturation (AoSOX1) | Km [1] | Vmax/Km [1] | Km [2] | Vmax/Km [2] | kcat [2] | Km [3] | Vmax/Km [3]
Cc1cc2nc3c(=O)[nH]c(=O)nc-3n(C[C@H](O)[C@H](O)[C@H](O)COP(=O)(O)OP(=O)(O)OC[C@H]3O[C@@H](n4cnc5c(N)ncnc54)[C@H](O)[C@@H]3O)c2cc1C [FAD] | The cofactor was spectrophotometrically identified to be FAD after the cofactor was released | – | – | – | – | – | – | –
B1 | – | 6.11 ± 0.13 mM | 21800 min⁻¹ | 1.55 ± 0.03 mM | 9780 min⁻¹ | 5950 s⁻¹ | 9.73 ± 0.08 mM | 13100 min⁻¹
